From patent publication US20140274782A1, “AFFINITY REAGENTS AND METHODS FOR DETECTION, PURIFICATION, AND PROTEOMIC ANALYSIS OF METHYLATED PROTEINS” (The Board of Trustees of the Leland Stanford Junior …, priority 2013, published 2014)

B1: AMOT (protein, UniProt Q4VCS5 1-1084, looked up)
Angiomotin: MRNSEEQPSGGTTVLQRLLQEQLRYGNPSENRSLLAIHQQATGNGPPFPSGSGNPGPQSDVLSPQDHHQQLVAHAARQEPQGQEIQSENLIMEKQLSPRMQNNEELPTYEEAKVQSQYFRGQQHASVGAAFYVTGVTNQKMRTEGRPSVQRLNPGKMHQDEGLRDLKQGHVRSLSERLMQMSLATSGVKAHPPVTSAPLSPPQPNDLYKNPTSSSEFYKAQGPLPNQHSLKGMEHRGPPPEYPFKGMPPQSVVCKPQEPGHFYSEHRLNQPGRTEGQLMRYQHPPEYGAARPAQDISLPLSARNSQPHSPTSSLTSGGSLPLLQSPPSTRLSPARHPLVPNQGDHSAHLPRPQQHFLPNQAHQGDHYRLSQPGLSQQQQQQQQQHHHHHHHQQQQQQQPQQQPGEAYSAMPRAQPSSASYQPVPADPFAIVSRAQQMVEILSDENRNLRQELEGCYEKVARLQKVETEIQRVSEAYENLVKSSSKREALEKAMRNKLEGEIRRMHDFNRDLRERLETANKQLAEKEYEGSEDTRKTISQLFAKNKESQREKEKLEAELATARSTNEDQRRHIEIRDQALSNAQAKVVKLEEELKKKQVYVDKVEKMQQALVQLQAACEKREQLEHRLRTRLERELESLRIQQRQGNCQPTNVSEYNAAALMELLREKEERILALEADMTKWEQKYLEENVMRHFALDAAATVAAQRDTTVISHSPNTSYDTALEARIQKEEEEILMANKRCLDMEGRIKTLHAQIIEKDAMIKVLQQRSRKEPSKTEQLSCMRPAKSLMSISNAGSGLLSHSSTLTGSPIMEEKRDDKSWKGSLGILLGGDYRAEYVPSTPSPVPPSTPLLSAHSKTGSRDCSTQTERGTESNKTAAVAPISVPAPVAAAATAAAITATAATITTTMVAAAPVAVAAAAAPAAAAAPSPATAAATAAAVSPAAAGQIPAAASVASAAAVAPSAAAAAAVQVAPAAPAPVPAPALVPVPAPAAAQASAPAQTQAPTSAPAVAPTPAPTPTPAVAQAEVPASPATGPGPHRLSIPSLTCNPDKTDGPVFHSNTLERKTPIQILGQEPDAEMVEYLI
B2: DAZAP1 (protein, UniProt Q96EP5 1-407, looked up)
DAZ-associated protein 1: MNNSGADEIGKLFVGGLDWSTTQETLRSYFSQYGEVVDCVIMKDKTTNQSRGFGFVKFKDPNCVGTVLASRPHTLDGRNIDPKPCTPRGMQPERTRPKEGWQKGPRSDNSKSNKIFVGGIPHNCGETELREYFKKFGVVTEVVMIYDAEKQRPRGFGFITFEDEQSVDQAVNMHFHDIMGKKVEVKRAEPRDSKSQAPGQPGASQWGSRVVPNAANGWAGQPPPTWQQGYGPQGMWVPAGQAIGGYGPPPAGRGAPPPPPPFTSYIVSTPPGGFPPPQGFPQGYGAPPQFSFGYGPPPPPPDQFAPPGVPPPPATPGAAPLAFPPPPSQAAPDMSKPPTAQPDFPYGQYAGYGQDLSGFGQGFSDPSQQPPSYGGPSVPGSGGPPAGGSGFGRGQNHNVQGFHPYRR
B3: KHSRP (protein, UniProt Q92945 2-711, looked up)
Far upstream element-binding …: SDYSTGGPPPGPPPPAGGGGGAGGAGGGPPPGPPGAGDRGGGGPGGGGPGGGSAGGPSQPPGGGGPGIRKDAFADAVQRARQIAAKIGGDAATTVNNSTPDFGFGGQKRQLEDGDQPESKKLASQGDSISSQLGPIHPPPRTSMTEEYRVPDGMVGLIIGRGGEQINKIQQDSGCKVQISPDSGGLPERSVSLTGAPESVQKAKMMLDDIVSRGRGGPPGQFHDNANGGQNGTVQEIMIPAGKAGLVIGKGGETIKQLQERAGVKMILIQDGSQNTNVDKPLRIIGDPYKVQQACEMVMDILRERDQGGFGDRNEYGSRIGGGIDVPVPRHSVGVVIGRSGEMIKKIQNDAGVRIQFKQDDGTGPEKIAHIMGPPDRCEHAARIINDLLQSLRSGPPGPPGGPGMPPGGRGRGRGQGNWGPPGGEMTFSIPTHKCGLVIGRGGENVKAINQQTGAFVEISRQLPPNGDPNFKLFIIRGSPQQIDHAKQLIEEKIEGPLCPVGPGPGGPGPAGPMGPFNPGPFNQGPPGAPPHAGGPPPHQYPPQGWGNTYPQWQPPAPHDPSKAAAAAADPNAAWAAYYSHYYQQPPGPVPGPAPAPAAPPAQGEPPQPPPTGQSDYTKAWEEYYKKIGQQPQQPGAPPQQDYTKAWEEYYKKQAQVATGGGPGAPPGSQPDYSAAWAEYYRQQAAYYGQTPGPGGPQPPPTQQGQQQAQ

What was measured:
[1] = system: 3×MBT domain of L3MBTL1; assay: Triple SILAC pull-down, 3xMBT/3xMBTD355N ratio (cytoplasmic, nuclear and chromatin fractions of 293T cells); format: binding, human; conditions: SILAC ratio, pull-down 3xMBT vs 3xMBTD355N; for 3xMBT/D355N UNC Heavy: experiment with UNC0638 in heavy SILAC media; for 3xMBT/D355N UNC Light: experiment with UNC0638 in light SILAC media;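 as to all read-outs here: proteins quantified with MaxQuant, requiring at least two unique peptides and quantification in both label directions, normalized to the mean of proteins from a digested loading control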
[2] = target: T1, G9a and GLP (Homo sapiens, UniProt Q96KQ7+Q9H9B1); assay: Triple SILAC pull-down after UNC0638 treatment of 293T cells, DMSO/UNC0638 ratio of protein captured by 3×MBT; format: cell-based; set-up: endogenous in cells; host or cells: HEK 293T; conditions: for Relative to UNC0638 UNC Heavy / Relative to UNC0638 UNC Light: SILAC ratio DMSO/UNC0638 of protein pulled down with 3xMBT; for Relative to UNC0638 UNC Heavy: UNC0638 in heavy SILAC media; for Relative to UNC0638 UNC Light: UNC0638 in light SILAC media; for Relative to UNC0638 Average: average of UNC Light and UNC Heavy experiments;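 as to all read-outs here: mass spectrometry (Q-Exactive) SILAC quantitation, DMSO/UNC0638 ratio computed after subtracting 3×MBTD355N mutant pull-down background, only proteins with at least twofold 3×MBT over mutant signal considered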
T1 sequence (Q96KQ7 2-1210 limits assumed): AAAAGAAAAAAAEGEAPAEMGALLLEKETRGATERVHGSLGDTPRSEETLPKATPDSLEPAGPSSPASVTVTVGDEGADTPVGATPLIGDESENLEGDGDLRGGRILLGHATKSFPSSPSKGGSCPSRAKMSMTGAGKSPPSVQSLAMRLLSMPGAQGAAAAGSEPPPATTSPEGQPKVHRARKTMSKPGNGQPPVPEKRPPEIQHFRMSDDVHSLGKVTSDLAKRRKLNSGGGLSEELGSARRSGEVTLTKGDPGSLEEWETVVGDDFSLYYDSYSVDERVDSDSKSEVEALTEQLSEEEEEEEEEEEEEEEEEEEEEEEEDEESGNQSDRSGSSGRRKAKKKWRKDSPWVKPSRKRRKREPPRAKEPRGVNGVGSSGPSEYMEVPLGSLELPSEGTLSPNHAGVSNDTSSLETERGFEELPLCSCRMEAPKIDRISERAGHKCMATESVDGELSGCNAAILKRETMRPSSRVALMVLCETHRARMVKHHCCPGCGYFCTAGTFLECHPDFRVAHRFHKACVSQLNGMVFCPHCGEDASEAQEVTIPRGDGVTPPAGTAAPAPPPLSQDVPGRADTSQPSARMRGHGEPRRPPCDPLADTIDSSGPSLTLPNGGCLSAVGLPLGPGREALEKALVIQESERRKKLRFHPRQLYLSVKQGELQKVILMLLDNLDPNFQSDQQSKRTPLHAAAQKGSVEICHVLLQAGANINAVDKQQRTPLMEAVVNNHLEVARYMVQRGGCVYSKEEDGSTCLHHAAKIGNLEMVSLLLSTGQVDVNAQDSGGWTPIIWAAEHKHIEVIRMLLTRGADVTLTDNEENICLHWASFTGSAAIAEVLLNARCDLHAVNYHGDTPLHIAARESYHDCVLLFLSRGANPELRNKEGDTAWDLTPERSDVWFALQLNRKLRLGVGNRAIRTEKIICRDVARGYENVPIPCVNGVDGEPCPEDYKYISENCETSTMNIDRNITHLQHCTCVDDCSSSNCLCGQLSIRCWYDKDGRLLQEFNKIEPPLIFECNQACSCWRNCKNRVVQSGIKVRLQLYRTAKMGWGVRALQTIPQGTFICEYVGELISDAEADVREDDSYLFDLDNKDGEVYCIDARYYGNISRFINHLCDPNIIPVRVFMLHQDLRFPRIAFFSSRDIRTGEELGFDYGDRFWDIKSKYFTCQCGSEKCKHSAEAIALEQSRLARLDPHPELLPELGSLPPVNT
T1 sequence (Q9H9B1 2-1298 limits assumed): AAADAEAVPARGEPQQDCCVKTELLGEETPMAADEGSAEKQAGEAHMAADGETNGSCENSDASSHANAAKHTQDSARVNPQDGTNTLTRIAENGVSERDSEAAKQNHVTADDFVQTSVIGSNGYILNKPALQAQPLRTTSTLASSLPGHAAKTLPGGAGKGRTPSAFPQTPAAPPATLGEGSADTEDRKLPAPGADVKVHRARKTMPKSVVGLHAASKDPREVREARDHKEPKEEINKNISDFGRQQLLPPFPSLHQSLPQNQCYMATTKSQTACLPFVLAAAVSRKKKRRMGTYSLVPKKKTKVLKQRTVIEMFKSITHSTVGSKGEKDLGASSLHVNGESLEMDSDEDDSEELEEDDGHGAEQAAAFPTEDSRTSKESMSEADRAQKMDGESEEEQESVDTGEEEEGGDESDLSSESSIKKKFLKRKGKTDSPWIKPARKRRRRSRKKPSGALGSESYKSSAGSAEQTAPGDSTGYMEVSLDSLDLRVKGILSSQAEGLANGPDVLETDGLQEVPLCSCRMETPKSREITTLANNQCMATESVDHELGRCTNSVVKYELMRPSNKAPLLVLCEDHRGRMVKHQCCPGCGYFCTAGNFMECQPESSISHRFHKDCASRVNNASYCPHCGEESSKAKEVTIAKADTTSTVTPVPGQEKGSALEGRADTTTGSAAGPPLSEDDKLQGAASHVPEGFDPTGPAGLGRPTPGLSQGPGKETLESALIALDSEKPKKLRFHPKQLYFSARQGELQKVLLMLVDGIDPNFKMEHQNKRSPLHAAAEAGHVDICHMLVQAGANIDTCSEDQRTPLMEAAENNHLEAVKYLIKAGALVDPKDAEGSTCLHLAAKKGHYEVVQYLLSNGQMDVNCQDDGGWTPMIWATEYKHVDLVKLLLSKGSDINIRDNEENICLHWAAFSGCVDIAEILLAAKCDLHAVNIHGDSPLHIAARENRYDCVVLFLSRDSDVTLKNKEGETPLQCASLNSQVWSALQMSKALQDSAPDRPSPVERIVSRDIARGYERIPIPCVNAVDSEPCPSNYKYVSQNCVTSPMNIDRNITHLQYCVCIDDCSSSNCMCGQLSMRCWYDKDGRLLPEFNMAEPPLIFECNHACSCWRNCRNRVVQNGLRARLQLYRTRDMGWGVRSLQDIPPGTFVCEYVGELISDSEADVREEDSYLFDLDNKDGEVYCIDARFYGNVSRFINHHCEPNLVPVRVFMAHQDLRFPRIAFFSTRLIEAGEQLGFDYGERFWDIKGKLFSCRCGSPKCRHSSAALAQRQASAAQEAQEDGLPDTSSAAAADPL

| Molecule | 3xMBT/D355N UNC Heavy [1] | 3xMBT/D355N UNC Light [1] | Relative to UNC0638 UNC Heavy [2] | Relative to UNC0638 UNC Light [2] | Relative to UNC0638 Average [2] |
| --- | --- | --- | --- | --- | --- |
| B1 | 2.95 log base 2 | 2.44 log base 2 | −0.03 log base 2 | 0.39 log base 2 | 0.18 log base 2 |
| B2 | 2.92 log base 2 | 2.10 log base 2 | 0.01 log base 2 | 0.35 log base 2 | 0.18 log base 2 |
| B3 | 3.34 log base 2 | 3.18 log base 2 | 0.17 log base 2 | 0.16 log base 2 | 0.16 log base 2 |
